In the supplement of paper PMC5998384:

Legend:
[1] = test system: HeLa Kyoto; test: solubility in G1/S (NP-40 vs SDS abundance) (log2 ratio); higher = more soluble; conditions: cell cycle stage: G1/S
[2] = test system: HeLa Kyoto; test: solubility change mitosis vs G1/S (difference of NP-40 vs SDS log2 ratios) (log2 ratio difference); higher = more soluble in mitosis
[3] = test system: HeLa Kyoto; test: thermal stability score vs G1/S (z-score of summed log2 fold changes over temperatures); higher = more thermally stable than in G1/S
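Wherever solubility change mitosis vs G1/S (difference of NP-40 vs SDS log2 ratios) is given: synchronized HeLa Kyoto cells (double thymidine block for G1/S, nocodazole release for mitosis), protein amounts in NP-40 versus SDS lysates quantified by mass spectrometry, three biological replicates.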
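Wherever solubility in G1/S (NP-40 vs SDS abundance) is given: HeLa Kyoto cells arrested at G1/S by double thymidine block, proteins quantified by TMT10plex mass spectrometry in mild NP-40 versus SDS extracts, three biological replicates.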
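Wherever thermal stability score vs G1/S (z-score of summed log2 fold changes over temperatures) is given: synchronized HeLa Kyoto cells, proteins quantified by TMT10plex mass spectrometry, three biological replicates, mitosis taken 0.5 h after nocodazole release, G1/S directly after double thymidine block.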

LMTK2, sequence (chain, as listed by the source): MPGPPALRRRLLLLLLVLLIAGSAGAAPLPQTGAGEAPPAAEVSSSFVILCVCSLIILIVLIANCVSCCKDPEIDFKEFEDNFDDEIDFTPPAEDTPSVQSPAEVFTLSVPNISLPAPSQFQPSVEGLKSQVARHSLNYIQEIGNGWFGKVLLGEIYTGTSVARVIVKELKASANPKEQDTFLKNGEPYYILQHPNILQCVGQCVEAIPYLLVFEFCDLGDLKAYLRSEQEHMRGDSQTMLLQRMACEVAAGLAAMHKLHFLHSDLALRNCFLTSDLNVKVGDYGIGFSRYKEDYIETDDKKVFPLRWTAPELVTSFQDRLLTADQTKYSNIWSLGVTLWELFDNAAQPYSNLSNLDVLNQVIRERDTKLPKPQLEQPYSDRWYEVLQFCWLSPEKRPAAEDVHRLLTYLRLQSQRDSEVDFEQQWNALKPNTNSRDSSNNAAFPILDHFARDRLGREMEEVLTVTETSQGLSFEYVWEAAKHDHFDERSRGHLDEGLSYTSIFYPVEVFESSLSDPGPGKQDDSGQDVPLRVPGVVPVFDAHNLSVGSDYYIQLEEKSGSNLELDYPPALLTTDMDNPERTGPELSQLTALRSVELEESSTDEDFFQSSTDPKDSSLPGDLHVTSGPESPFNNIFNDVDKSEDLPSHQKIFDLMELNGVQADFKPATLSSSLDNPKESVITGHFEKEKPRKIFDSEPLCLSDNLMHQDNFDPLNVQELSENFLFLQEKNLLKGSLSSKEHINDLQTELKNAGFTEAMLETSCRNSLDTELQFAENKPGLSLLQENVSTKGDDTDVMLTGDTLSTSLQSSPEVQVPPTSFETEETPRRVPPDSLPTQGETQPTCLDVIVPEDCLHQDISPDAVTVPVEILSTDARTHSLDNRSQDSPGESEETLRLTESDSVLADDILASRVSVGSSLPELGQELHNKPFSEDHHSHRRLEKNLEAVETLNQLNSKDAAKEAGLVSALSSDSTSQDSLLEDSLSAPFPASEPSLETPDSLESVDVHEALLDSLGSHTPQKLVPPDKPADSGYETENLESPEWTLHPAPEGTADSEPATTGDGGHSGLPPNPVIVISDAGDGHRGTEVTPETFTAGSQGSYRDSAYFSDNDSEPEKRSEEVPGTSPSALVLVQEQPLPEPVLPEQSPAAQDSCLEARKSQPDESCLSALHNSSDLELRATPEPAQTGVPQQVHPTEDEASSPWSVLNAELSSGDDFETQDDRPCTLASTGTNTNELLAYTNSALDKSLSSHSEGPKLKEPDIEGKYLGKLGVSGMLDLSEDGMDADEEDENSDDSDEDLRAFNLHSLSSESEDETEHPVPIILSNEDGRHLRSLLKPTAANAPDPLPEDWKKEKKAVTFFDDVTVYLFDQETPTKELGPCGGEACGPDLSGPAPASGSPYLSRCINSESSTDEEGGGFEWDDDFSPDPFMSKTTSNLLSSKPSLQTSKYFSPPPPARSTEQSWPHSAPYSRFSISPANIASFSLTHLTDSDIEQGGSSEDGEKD

Row | Substance | solubility in G1/S (log2) [1] | solubility change mitosis (log2) [2] | thermal stability score ([3]; cell cycle stage: early G1 (4.5 h after nocodazole release)) | thermal stability score ([3]; cell cycle stage: mitosis)
1 | MGTIHLFRKPQRSFFGKLLREFRLVAADRRSWKILLFGVINLICTGFLLMWCSSTNSIALTAYTYLTIFDLFSLMTCLISYWVTLRKPSPVYSFGFERLEVLAVFASTVLAQLGALFILKESAERFLEQPEIHTGRLLVGTFVALCFNLFTMLSIRNKPFAYVSEAASTSWLQEHVADLSRSLCGIIPGLSSIFLPRMNPFVLIDLAGAFALCITYMLIEINNYFAVDTASAIAIALMTFGTMYPMSVYSGKVLLQTTPPHVIGQLDKLIREVSTLDGVLEVRNEHFWTLGFGSLAGSVHVRIRRDANEQMVLAHVTNRLYTLVSTLTVQIFKDDWIRPALLSGPVAANVLNFSDHHVIPMPLLKGTDDLNPVTSTPAKPSSPPPEFSFNTPGKNVNPVILLNTQTRPYGFGLNHGHTPYSSMLNQGLGVPGIGATQGLRTGFTNIPSRYGTNNRIGQPRP [SLC30A6] | -0.097 | -0.0121 | – | –
2 | LMTK2 | -0.313 | -0.217 | – | –
3 | MVVSKMNKDAQMRAAINQKLIETGERERLKELLRAKLIECGWKDQLKAHCKEVIKEKGLEHVTVDDLVAEITPKGRALVPDSVKKELLQRIRTFLAQHASL [ENY2] | -0.203 | 0.636 | – | –
4 | MAGPGSTGGQIGAAALAGGARSKVAPSVDFDHSCSDSVEYLTLNFGPFETVHRWRRLPPCDEFVGARRSKHTVVAYKDAIYVFGGDNGKTMLNDLLRFDVKDCSWCRAFTTGTPPAPRYHHSAVVYGSSMFVFGGYTGDIYSNSNLKNKNDLFEYKFATGQWTEWKIEGRLPVARSAHGATVYSDKLWIFAGYDGNARLNDMWTIGLQDRELTCWEEVAQSGEIPPSCCNFPVAVCRDKMFVFSGQSGAKITNNLFQFEFKDKTWTRIPTEHLLRGSPPPPQRRYGHTMVAFDRHLYVFGGAADNTLPNELHCYDVDFQTWEVVQPSSDSEVGGAEVPERACASEEVPTLTYEERVGFKKSRDVFGLDFGTTSAKQPTQPASELPSGRLFHAAAVISDAMYIFGGTVDNNIRSGEMYRFQFSCYPKCTLHEDYGRLWESRQFCDVEFVLGEKEECVQGHVAIVTARSRWLRRKITQARERLAQKLEQEAAPVPREAPGVAAGGARPPLLHVAIREAEARPFEVLMQFLYTDKIKYPRKGHVEDVLLIMDVYKLALSFQLCRLEQLCRQYIEASVDLQNVLVVCESAARLQLSQLKEHCLNFVVKESHFNQVIMMKEFERLSSPLIVEIVRRKQQPPPRTPLDQPVDIGTSLIQDMKAYLEGAGAEFCDITLLLDGHPRPAHKAILAARSSYFEAMFRSFMPEDGQVNISIGEMVPSRQAFESMLRYIYYGEVNMPPEDSLYLFAAPYYYGFYNNRLQAYCKQNLEMNVTVQNVLQILEAADKTQALDMKRHCLHIIVHQFTKVSKLPTLRSLSQQLLLDIIDSLASHISDKQCAELGADI [LZTR1] | -0.115 | -0.0816 | – | –
5 | SMG6 | -0.859 | 0.113 | – | –
6 | MLFTVSCSKMSSIVDRDDSSIFDGLVEEDDKDKAKRVSRNKSEKKRRDQFNVLIKELGSMLPGNARKMDKSTVLQKSIDFLRKHKEITAQSDASEIRQDWKPTFLSNEEFTQLMLEALDGFFLAIMTDGSIIYVSESVTSLLEHLPSDLVDQSIFNFIPEGEHSEVYKILSTHLLESDSLTPEYLKSKNQLEFCCHMLRGTIDPKEPSTYEYVKFIGNFKSLNSVSSSAHNGFEGTIQRTHRPSYEDRVCFVATVRLATPQFIKEMCTVEEPNEEFTSRHSLEWKFLFLDHRAPPIIGYLPFEVLGTSGYDYYHVDDLENLAKCHEHLMQYGKGKSCYYRFLTKGQQWIWLQTHYYITYHQWNSRPEFIVCTHTVVSYAEVRAERRRELGIEESLPETAADKSQDSGSDNRINTVSLKEALERFDHSPTPSASSRSSRKSSHTAVSDPSSTPTKIPTDTSTPPRQHLPAHEKMVQRRSSFSSQSINSQSVGSSLTQPVMSQATNLPIPQGMSQFQFSAQLGAMQHLKDQLEQRTRMIEANIHRQQEELRKIQEQLQMVHGQGLQMFLQQSNPGLNFGSVQLSSGNSSNIQQLAPINMQGQVVPTNQIQSGMNTGHIGTTQHMIQQQTLQSTSTQSQQNVLSGHSQQTSLPSQTQSTLTAPLYNTMVISQPAAGSMVQIPSSMPQNSTQSAAVTTFTQDRQIRFSQGQQLVTKLVTAPVACGAVMVPSTMLMGQVVTAYPTFATQQQQSQTLSVTQQQQQQSSQEQQLTSVQQPSQAQLTQPPQQFLQTSRLLHGNPSTQLILSAAFPLQQSTFPQSHHQQHQSQQQQQLSRHRTDSLPDPSKVQPQ [CLOCK] | 0.134 | -0.192 | – | –
7 | MAWWKAWIEQEGVTVKSSSHFNPDPDAETLYKAMKGIGTNEQAIIDVLTKRSNTQRQQIAKSFKAQFGKDLTETLKSELSGKFERLIVALMYPPYRYEAKELHDAMKGLGTKEGVIIEILASRTKNQLREIMKAYEEDYGSSLEEDIQADTSGYLERILVCLLQGSRDDVSSFVDPALALQDAQDLYAAGEKIRGTDEMKFITILCTRSATHLLRVFEEYEKIANKSIEDSIKSETHGSLEEAMLTVVKCTQNLHSYFAERLYYAMKGAGTRDGTLIRNIVSRSEIDLNLIKCHFKKMYGKTLSSMIMEDTSGDYKNALLSLVGSDP [ANXA8L1] | 0.415 | -0.077 | – | –
8 | MPQKDPCQKQACEIQKCLQANSYMESKCQAVIQELRKCCAQYPKGRSVVCSGFEKEEEENLTRKSASK [CMC4] | -1.4 | 0.221 | – | –
9 | MPVSTSLHQDGSQERPVSLTSTTSSSGSSCDSRSAMEEPSSSEAPAKNGAGSLRSRHLPNSNNNSSSWLNVKGPLSPFNSRAAAGPAHHKLSYLGRVVREIVETERMYVQDLRSIVEDYLLKIIDTPGLLKPEQVSALFGNIENIYALNSQLLRDLDSCNSDPVAVASCFVERSQEFDIYTQYCNNYPNSVAALTECMRDKQQAKFFRDRQELLQHSLPLGSYLLKPVQRILKYHLLLQEIAKHFDEEEDGFEVVEDAIDTMTCVAWYINDMKRRHEHAVRLQEIQSLLINWKGPDLTTYGELVLEGTFRVHRVRNERTFFLFDKTLLITKKRGDHFVYKGNIPCSSLMLIESTRDSLCFTVTHYKHSKQQYSIQAKTVEEKRNWTHHIKRLILENHHATIPQKAKEAILEMDSYYPNRYRCSPERLKKAWSSQDEVSTNVRQGRRQSEPTKHLLRQLNEKARAAGMKGKGRRESESSRSSRRPSGRSPTSTEKRMSFESISSLPEVEPDPEAGSEQEVFSAVEGPSAEETPSDTESPEVLETQLDAHQGLLGMDPPGDMVDFVAAESTEDLKALSSEEEEEMGGAAQEPESLLPPSVLDQASVIAERFVSSFSRRSSVAQEDSKSSGFGSPRLVSRSSSVLSLEGSEKGLARHGSATDSLSCQLSPEVDISVGVATEDSPSVNGMEPPSPGCPVEPDRSSCKKKESALSTRDRLLLDKIKSYYENAEHHDAGFSVRRRESLSYIPKGLVRNSISRFNSLPRPDPEPVPPVGSKRQVGSRPTSWALFELPGPSQAVKGDPPPISDAEFRPSSEIVKIWEGMESSGGSPGKGPGQGQANGFDLHEPLFILEEHELGAITEESATASPESSSPTEGRSPAHLARELKELVKELSSSTQGELVAPLHPRIVQLSHVMDSHVSERVKNKVYQLARQYSLRIKSNKPVMARPPLQWEKVAPERDGKSPTVPCLQEEAGEPLGGKGKRKPVLSLFDYEQLMAQEHSPPKPSSAGEMSPQRFFFNPSAVSQRTTSPGGRPSARSPLSPTETFSWPDVRELCSKYASRDEARRAGGGRPRGPPVNRSHSVPENMVEPPLSGRVGRCRSLSTKRGRGGGEAAQSPGPLPQSKPDGGETLYVTADLTLEDNRRVIVMEKGPLPSPTAGLEESSGQGPSSPVALLGQVQDFQQSAECQPKEEGSRDPADPSQQGRVRNLREKFQALNSVG [PLEKHG3] | -0.79 | -0.239 | – | –
10 | MSFAESGWRSALRRRGPGTPGPVARPSYSSFTQGDSWGEGEVDEEEGCDQVARDLRAEFSAGAWSEPRKRSVLPPDGNGSPVLPDKRNGIFPAAAGSRAQPRRWPVQVLSILCSLLFAILLAFLLAIAYLIVKELHAENLKNEDDVDTGLLGFWTLLIISLTAGFSCCSFSWTVTYFDSFEPGMFPPTPLSPARFKKLTGHSFHMGYSMAILNGIVAALTVAWCLM [ARL6IP6] | -0.241 | 0.698 | – | –
11 | MDRRKKPLDVTASSLVDLKAELFRKQEEFKQEKLLKDSGVFGKPKTTNKKPSIWSKQNVGVSNRAEKDAEQKIEEQKTLDKAREKLEEKAKLYEKMTKGDFIDEEVEDMYLVDFTQKIIDKRKEMEASGAHRDSQKAGERDDDEENLPEGEIPPPQDPSEEWVDYVDSLGRSRRCMRKDLPDLLEMDKNLQGRLFISPANEKTLLSEDMRKELQRQQWEEEEREALKRPMGPVHYEDIRENEARQLGVGYFAFARDKELRNKQMKTLEMLREQTTDQRTKRENIKEKRKAILEARLAKLRQKKMKKSKEGGTEEENRDGDVIGPLPPEPEAVPTPRPAAQSSKVEVIVQERKDTKPGVPHIREWDRGKEFSFGYWSKRQSDLRAERDPEFAPPSDYFVGQKRTGFSSSQAWSRPGPAQSDPGQCPDQSHGPSPEHTSPTPAPDNPPQAPTVTFKTLDDMISYYKQVT [CCDC174] | 0.12 | 0.139 | – | –
12 | MRDRLPDLTACRKNDDGDTVVVVEKDHFMDDFFHQVEEIRNSIDKITQYVEEVKKNHSIILSAPNPEGKIKEELEDLNKEIKKTANKIRAKLKAIEQSFDQDESGNRTSVDLRIRRTQHSVLSRKFVEAMAEYNEAQTLFRERSKGRIQRQLEITGRTTTDDELEEMLESGKPSIFTSDIISDSQITRQALNEIESRHKDIMKLETSIRELHEMFMDMAMFVETQGEMINNIERNVMNATDYVEHAKEETKKAIKYQSKARRKKWIIIAVSVVLVAIIALIIGLSVGK [STX2] | 0.137 | 0.0333 | – | –
13 | MAFIRKKQQEQQLQLYSKERFSLLLLNLEEYYFEQHRANHILHKGSHHERKIRGSLKICSKSVIFEPDSISQPIIKIPLRDCIKIGKHGENGANRHFTKAKSGGISLIFSQVYFIKEHNVVAPYKIERGKMEYVFELDVPGKVEDVVETLLQLHRASCLDKLGDQTAMITAILQSRLARTSFDKNRFQNISEKLHMECKAEMVTPLVTNPGHVCITDTNLYFQPLNGYPKPVVQITLQDVRRIYKRRHGLMPLGLEVFCTEDDLCSDIYLKFYEPQDRDDLYFYIATYLEHHVAEHTAESYMLQWQRGHLSNYQYLLHLNNLADRSCNDLSQYPVFPWIIHDYSSSELDLSNPGTFRDLSKPVGALNKERLERLLTRYQEMPEPKFMYGSHYSSPGYVLFYLVRIAPEYMLCLQNGRFDNADRMFNSIAETWKNCLDGATDFKELIPEFYGDDVSFLVNSLKLDLGKRQGGQMVDDVELPPWASSPEDFLQKSKDALESNYVSEHLHEWIDLIFGYKQKGSDAVGAHNVFHPLTYEGGVDLNSIQDPDEKVAMLTQILEFGQTPKQLFVTPHPRRITPKFKSLSQTSSYNASMADSPGEESFEDLTEESKTLAWNNITKLQLHEHYKIHKEAVTGITVSRNGSSVFTTSQDSTLKMFSKESKMLQRSISFSNMALSSCLLLPGDATVITSSWDNNVYFYSIAFGRRQDTLMGHDDAVSKICWHDNRLYSASWDSTVKVWSGVPAEMPGTKRHHFDLLAELEHDVSVDTISLNAASTLLVSGTKEGTVNIWDLTTATLMHQIPCHSGIVCDTAFSPDSRHVLSTGTDGCLNVIDVQTGMLISSMTSDEPQRCFVWDGNSVLSGSQSGELLVWDLLGAKISERIQGHTGAVTCIWMNEQCSSIITGGEDRQIIFWKLQY [NSMAF] | – | -0.221 | -0.603 | 0.514
